Results reported in patent US20230126400A1 (Alector, published 2023).

What was measured:
human MS4A4A [1] = molecular target: T1, human MS4A4A (human, UniProt Q96JQ5 1-239); test: FACS, U937 cells overexpressing human MS4A4A, 5 ug/ml
Procedure: (§1) Purified huIgG1 chimeric anti-MS4A4A antibodies were screened for their ability to differentially bind MS4A4A on U937 cells stably overexpressing human MS4A4A, U937 cells with human MS4A4A knocked out, and parental U937 cells. Differential binding to MS4A4A expressed on these cells was assessed by FACS analysis using 5 μg/ml of purified anti-MS4A4A chimeric antibodies, as described above.

human MS4A4A [2] = molecular target: T1, human MS4A4A; test: FACS, parental U937 cells (endogenous human MS4A4A, not overexpressed), 5 ug/ml
Procedure: as §1

Row | Binder | ratio of MFI over secondary antibody alone (human MS4A4A [1]) [ratio] | ratio of MFI over secondary antibody alone (human MS4A4A [2]) [ratio]
1 | anti-MS4A4A antibody 4A-206, huIgG1 chimera (antibody, V domains shown) VH: EVKLVESGGGLVKPGGSLKLSCAASGFTFSSYTMSWVRQTPEKRLEWVASLSSGGSTYYPDSVKGRFTISRDNARNILYLQMSSLRSEDTAMYYCAKDYYVSSYRWYFDVWGAGTTVTVSS VL: DIQMTQITSSLSASLGDRVTISCRASQDISNYLNWYQQKPDGTVKLLIYYTSNLHSGVPSRFSGSGSGTDYSLTISNLEQEDIATYFCQQGKSFPWTFGGGTKLEIK | 18.5 | 1.1
2 | anti-MS4A4A antibody 4A-207, huIgG1 chimera (antibody, V domains shown) VH: EVNLEESGGGLVQPGGSMKLSCVASGFTFNNYWMNWVRQSPEKGLEWVAEIRLKSNNYATHYAESVKGRFTISRDDSKSSVYLQMNNLRPEDTAIYYCTTDPPMDYSGQGTPVTVSS VL: QIVLTQSPAFMSASPGEKVTITCSASSSVSYMHWFQQKPGTSPKLWIYSTSNLVSGVPDRFSGSGSGTSYSLTISRMEAEYAATYYCHQRTSYPWTFGGGTKLEIK | 10 | 1.1
3 | anti-MS4A4A antibody 4A-209, huIgG1 chimera (antibody, V domains shown) VH: EVKLLESGGGLVQPGGSLKLSCAASGFDFSRYWMSWVRQAPGKGLEWIGEIKSDSSTINYTPSLKDKFIISRDNAKNTLYLQMSKVRSEDTALYYCARRGFYDYDAWFAYWGQGTLVTVSS VL: QIVLTQSPTLMSASPGEKVTMTCSASSSVTYMYWYQQKPRSSPKPWIYLTSNRASGVPTRFSGSGSGTSHSLTISYMEAEDAATYYCQQWSSNPPTFGAGTKLELR | 19.8 | 1.1

Now from value to binder:

Row | ratio of MFI over secondary antibody alone (human MS4A4A [1]) [ratio] | ratio of MFI over secondary antibody alone (human MS4A4A [2]) [ratio] | Binder
4 | 19.9 | 1.1 | anti-MS4A4A antibody 4A-208, huIgG1 chimera (antibody, V domains shown) VH: EVHLQQSGAEVVKPGASVKLSCTASGFNIKDTYIHWVMQRPEQGLEWIGRIDPANDNTKYDPKFQGKATITSDTSSNTAYLHLSSLTSEDTAVYYCARIAYGSWALDYWGQGTSVTVSS VL: DIVMTQSQKFMSTSVGDRVIVTCKASQNVDTNVAWYQQKPGQSPKTLIYSASFRYSGVPDRFTGSGSGTDFTLSISNVQSEDLAEYFCQQYNSYPWTFGGGTKLEIK
5 | 23.6 | 1.1 | anti-MS4A4A antibody 4A-217, huIgG1 chimera (antibody, V domains shown) VH: EVKLVESGGGLVKPGGSLKLSCAASGFTFSSYGMSWVRQTPEKRLEWVAHISGGGTFTHYPDSVKGRFTISRDNAKNNLYLQMSSLRSEDTALYYCAREGAGTRFAYWGQGTLVTVSS VL: DIQMTQTTSSLSASLGDRVTISCRPSQDISNSLNWYQQKPDGTVKLLIYSTSKLHSGVPSRFSGSGSGIDYSLTISNLEQEDIATYFCQQDYTLPWTFGGGTKLDVK
6 | 13 | 1.1 | anti-MS4A4A antibody 4A-213, huIgG1 chimera (antibody, V domains shown) VH: QVQLKESGPGLVAPSQSLSITCTVSGFSLTSYGVHWVRQPPGKGLEWLGVIWVGGSTNYNSALMSRLSISKDNSKSQVFLKMNSLQTDDTAMYYCARAVYYYGSSYYFDYWGQGTTVTVSS VL: not shown
